Publication PMC5441561 (Science (New York, N.Y.), 2017)
Where two headings read alike, the source gives them in different places.

B1: KaiC_(S431E) (enzyme, Thermosynechococcus elongatus, UniProt Q79V60 1-518, looked up)
chain: MTNLPEHQSSPTEQSSAEVKKIPTMIEGFDDISHGGLPQGRTTLVSGTSGTGKTLFAVQFLYNGITIFNEPGIFVTFEESPQDIIKNALSFGWNLQSLIDQGKLFILDASPDPDGQEVAGDFDLSALIERIQYAIRKYKATRVSIDSVTAVFQQYDAASVVRREIFRLAFRLKQLGVTTIMTTERVDEYGPVARFGVEEFVSDNVVILRNVLEGERRRRTVEILKLRGTTHMKGEYPFTINNGINIFPLGAMRLTQRSSNVRVSSGVKTLDEMCGGGFFKDSIILATGATGTGKTLLVSKFLETGCQQGERALLFAYEESRAQLSRNASSWGIDFEELERRGLLRIICAYPESAGLEDHLQIIKSEIADFKPSRVAIDSLSALARGVSNNAFRQFVIGVTGFAKQEEITGFFTNTTDQFMGSNSITESHIETITDTILLLQYVEIRGEMSRAINVFKMRGSWHDKGIREYVITEKGAEIRDSFRNFEGIISGTPTRISVDEKTELARIAKGMQDLESE
B2: KaiA_(cryst) (domain or fragment, Thermosynechococcus elongatus)
chain: SNVDPQHRLSQKLKERLGYLGVYYKRDTAFFFRRMSPADKRKLLDELRSIYRTIVLEYFNTDAKVNERIDEFVSKAFFADISVSQVLEIHVELMDTFSKQLKLEGRSEDILLDYRLTLIDVIAHLSEMYRRSIPREV

How the values were obtained:
crystal structure [1] = biological target: the molecule itself; assay: crystal structure
crystal structure [2] = biological target: the molecule itself; assay: crystal structure; remark: listed apart in the source

Row | Protein | stoichiometry N (crystal structure [1]) | stoichiometry N (crystal structure [2])
1 | B1 | 6 | 
2 | B2 |  | 2
